Measurements published in article PMC2957522 (Journal of molecular biology, 2010).

Molecular target: rabbit skeletal muscle actin (monomeric, Mg-εATP-actin) (rabbit, UniProt P68135 1-377)
Assay: actin nucleotide exchange kinetics

Binder	Kd [µM]
Toxoplasma gondii profilin (TgPRF) (natural protein, selenomethionine-substituted (level of selenium substitution essentially 100%)) MSDWDPVVKEWLVDTGYCCAGGIANAEDGVVFAAAADDDDGWSKLYKDDHEEDTIGEDGNACGKVSINEASTIKAAVDDGSAPNGVWIGGQKYKVVRPEKGFEYNDCTFDITMCARSKGGAHLIKTPNGSIVIALYDEEKEQDKGNSRTSALAFAEYLHQSGY	13.9 ± 5
TgPRF β-hairpin deletion mutant (ΔBH) (natural protein) MSDWDPVVKEWLVDTGYCCAGGIANAEDGVVFAAAADDDDGWSKLYKDDNEASTIKAAVDDGSAPNGVWIGGQKYKVVRPEKGFEYNDCTFDITMCARSKGGAHLIKTPNGSIVIALYDEEKEQDKGNSRTSALAFAEYLHQSGY	> 150
